Data: publication PMC10397247
Blank lines part the entries; values can stand above or below the binder they belong to.

Tests used:
[1] = biological target: T1, P8A; assay: two-hybrid library CCNG1;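 also: natural log of median RNA to DNA barcode read ratio; higher means stronger binding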
T1 chain: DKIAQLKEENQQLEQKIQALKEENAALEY

[2] = biological target: T2, P9A; assay: two-hybrid library CCNG1;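 also: natural log of median RNA to DNA barcode read ratio; higher means stronger binding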
T2 chain: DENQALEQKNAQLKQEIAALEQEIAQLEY

[3] = biological target: T3, 4H492-bH; assay: two-hybrid library CCNG1;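 also: natural log of median RNA to DNA barcode read ratio; higher means stronger binding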
T3 chain: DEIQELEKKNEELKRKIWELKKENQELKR

[4] = biological target: T4, 4H3057-bH; assay: two-hybrid library CCNG1;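 also: natural log of median RNA to DNA barcode read ratio; higher means stronger binding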
T4 chain: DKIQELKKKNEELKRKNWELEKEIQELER

[5] = biological target: T5, 4H741-bH; assay: two-hybrid library CCNG1;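 also: natural log of median RNA to DNA barcode read ratio; higher means stronger binding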
T5 chain: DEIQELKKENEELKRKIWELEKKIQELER

[6] = biological target: T6, 4H3277-bH; assay: two-hybrid library CCNG1;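 also: natural log of median RNA to DNA barcode read ratio; higher means stronger binding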
T6 chain: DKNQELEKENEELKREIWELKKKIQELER

[7] = biological target: T7, 4H40-bH; assay: two-hybrid library CCNG1
T7 chain: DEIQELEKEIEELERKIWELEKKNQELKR

[8] = biological target: T8, 4H2915-bH; assay: two-hybrid library CCNG1
T8 chain: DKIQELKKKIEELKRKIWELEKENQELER

[9] = biological target: T9, 4H348-bH; assay: two-hybrid library CCNG1
T9 chain: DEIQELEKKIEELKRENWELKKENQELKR

[10] = biological target: T10, 4H319-bH; assay: two-hybrid library CCNG1
T10 chain: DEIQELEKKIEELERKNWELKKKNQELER

[11] = biological target: T11, 4H2839-bH; assay: two-hybrid library CCNG1
T11 chain: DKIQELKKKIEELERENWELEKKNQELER

[12] = biological target: T12, 4H477-bH; assay: two-hybrid library CCNG1
T12 chain: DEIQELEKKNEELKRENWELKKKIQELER

[13] = biological target: T13, 4H2760-AA; assay: two-hybrid library CCmax; conditions: mean of both orientations
T13 chain: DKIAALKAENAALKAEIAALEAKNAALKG

[14] = biological target: T14, 4H3449-AA; assay: two-hybrid library CCmax; conditions: mean of both orientations
T14 chain: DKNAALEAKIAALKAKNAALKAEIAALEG

[15] = biological target: T15, 4H380-AA; assay: two-hybrid library CCmax; conditions: mean of both orientations
T15 chain: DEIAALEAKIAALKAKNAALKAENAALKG

[16] = biological target: T16, 4H3094-AA; assay: two-hybrid library CCmax; conditions: mean of both orientations
T16 chain: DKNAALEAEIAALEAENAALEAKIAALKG

[17] = biological target: T17, 4H2604-AA; assay: two-hybrid library CCmax
T17 chain: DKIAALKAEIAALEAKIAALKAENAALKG

[18] = biological target: T18, 4H3974-AA; assay: two-hybrid library CCmax; conditions: mean of both orientations
T18 chain: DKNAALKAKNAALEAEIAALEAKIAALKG

[19] = biological target: T19, 4H3915-AA; assay: two-hybrid library CCmax; conditions: mean of both orientations
T19 chain: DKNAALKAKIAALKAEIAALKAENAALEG

[20] = biological target: T20, 4H324-AA; assay: two-hybrid library CCmax; conditions: mean of both orientations
T20 chain: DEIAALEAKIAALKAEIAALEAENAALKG

[21] = biological target: T21, 4H2961-AA; assay: two-hybrid library CCmax; conditions: mean of both orientations
T21 chain: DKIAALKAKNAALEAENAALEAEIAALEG

[22] = biological target: T22, 4H432-AA; assay: two-hybrid library CCmax; conditions: mean of both orientations
T22 chain: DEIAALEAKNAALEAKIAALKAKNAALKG

[23] = biological target: T23, 4H341-AA; assay: two-hybrid library CCmax; conditions: mean of both orientations
T23 chain: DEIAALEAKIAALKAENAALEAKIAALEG

[24] = biological target: T24, 4H3629-AA; assay: two-hybrid library CCmax; conditions: mean of both orientations
T24 chain: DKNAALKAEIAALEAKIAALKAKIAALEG

[25] = biological target: T25, 4H63-AA; assay: two-hybrid library CCmax; conditions: mean of both orientations
T25 chain: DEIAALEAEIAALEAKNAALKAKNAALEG

[26] = biological target: T26, 4H2774-AA; assay: two-hybrid library CCmax; conditions: mean of both orientations
T26 chain: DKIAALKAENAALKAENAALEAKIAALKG

[27] = biological target: T27, 4H2903-AA; assay: two-hybrid library CCmax; conditions: mean of both orientations
T27 chain: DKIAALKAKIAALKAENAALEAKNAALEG

[28] = biological target: T28, 4H3049-AA; assay: two-hybrid library CCmax; conditions: mean of both orientations
T28 chain: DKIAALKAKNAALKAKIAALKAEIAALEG

[29] = biological target: T29, 4H3777-AA; assay: two-hybrid library CCmax; conditions: mean of both orientations
T29 chain: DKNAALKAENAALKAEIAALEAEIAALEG

[30] = biological target: T30, 4H3619-AA; assay: two-hybrid library CCmax; conditions: mean of both orientations
T30 chain: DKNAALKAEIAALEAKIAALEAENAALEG

[31] = biological target: T31, 4H446-AA; assay: two-hybrid library CCmax; conditions: mean of both orientations
T31 chain: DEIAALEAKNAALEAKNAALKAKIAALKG

[32] = biological target: T32, 4H2621-AA; assay: two-hybrid library CCmax; conditions: mean of both orientations
T32 chain: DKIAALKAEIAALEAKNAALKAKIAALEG

[33] = biological target: T33, 4H2947-AA; assay: two-hybrid library CCmax; conditions: mean of both orientations
T33 chain: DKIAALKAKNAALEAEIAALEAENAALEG

[34] = biological target: T34, 4H2915-bA; assay: two-hybrid library CCNG1
T34 chain: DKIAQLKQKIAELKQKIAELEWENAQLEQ

[35] = biological target: T35, 4H492-bA; assay: two-hybrid library CCNG1
T35 chain: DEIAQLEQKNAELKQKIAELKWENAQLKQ

[36] = biological target: T36, 4H2839-bA; assay: two-hybrid library CCNG1
T36 chain: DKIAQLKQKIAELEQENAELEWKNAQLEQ

[37] = biological target: T37, 4H3277-bA; assay: two-hybrid library CCNG1
T37 chain: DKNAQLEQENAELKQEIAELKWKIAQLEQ

[38] = biological target: T38, 4H2717-bA; assay: two-hybrid library CCNG1
T38 chain: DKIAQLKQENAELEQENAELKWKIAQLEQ

[39] = biological target: T39, 4H40-bA; assay: two-hybrid library CCNG1
T39 chain: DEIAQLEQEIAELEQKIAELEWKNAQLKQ

[40] = biological target: T40, 4H477-bA; assay: two-hybrid library CCNG1
T40 chain: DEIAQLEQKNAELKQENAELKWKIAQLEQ

[41] = biological target: T41, 4H348-bA; assay: two-hybrid library CCNG1
T41 chain: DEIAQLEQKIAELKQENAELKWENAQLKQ

[42] = biological target: T42, 4H741-bA; assay: two-hybrid library CCNG1
T42 chain: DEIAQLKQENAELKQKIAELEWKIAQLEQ

[43] = biological target: T43, 4H3057-bA; assay: two-hybrid library CCNG1
T43 chain: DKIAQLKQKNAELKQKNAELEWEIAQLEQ

interaction score [1]: -1.27
interaction score [2]: -1.56
Binder: DKIAQLKEENQQLEQKIQALKEENAALEY [P8A]

interaction score [3]: -0.474
interaction score [4]: 0.0652
interaction score [5]: -0.868
interaction score [6]: -1.06
interaction score [7]: 0.0596
interaction score [8]: 0.242
interaction score [9]: 0.581
interaction score [10]: 1.44
interaction score [11]: 1.04
interaction score [12]: -0.629
Binder: DKIQELKKKIEELERENWELEKKNQELER [4H2839-bH]

interaction score [13]: -1.02
interaction score [14]: -0.758
interaction score [15]: 1.01
interaction score [16]: -1.23
interaction score [17]: 1.78
interaction score [18]: -0.774
interaction score [19]: 0.216
interaction score [20]: 2.07
interaction score [21]: -1.69
interaction score [22]: -1.37
interaction score [23]: 0.155
interaction score [24]: 1.84
interaction score [25]: -1.37
interaction score [26]: -1.79
interaction score [27]: -0.407
interaction score [28]: -0.492
interaction score [29]: -1.38
interaction score [30]: -0.188
interaction score [31]: -1.79
interaction score [32]: -0.139
interaction score [33]: -1.68
Binder: DKIAALKAEIAALEAKIAALKAENAALKG [4H2604-AA]

interaction score [34]: -0.721
interaction score [35]: -1.39
interaction score [36]: -0.857
interaction score [37]: -0.874
interaction score [38]: 1.02
interaction score [39]: -1.55
interaction score [40]: 0.776
interaction score [41]: -1.06
interaction score [42]: -1.48
interaction score [43]: 1.23
Binder: DKIAQLKQENAELEQENAELKWKIAQLEQ [4H2717-bA]
